Results reported in patent publication US20140072613A1, “Compositions and Methods for Treating Cutaneous Scarring” (priority 2012, published 2014).

Assays:
Assay in all cases: biochemical
Type in all cases: biochemical
266 human kinases [1] = molecular target: 266 human kinases (Homo sapiens, UniProt P05129); conditions: PKCγ(h); 100 μM
Outline: (§1)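 Kinase phosphorylates cationic substrate with radiolabelled ATP phosphate; substrate retained on anionic filter membrane; scintillation count; % of 100% activity control.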

266 human kinases [2] = molecular target: 266 human kinases (Homo sapiens, UniProt P07333); conditions: Fms(h); 100 μM
Outline: as §1

266 human kinases [3] = molecular target: 266 human kinases (Homo sapiens, UniProt P07948); conditions: Lyn(h); 100 μM
Chain of 266 human kinases (Homo sapiens, UniProt P07948) (P07948 whole entry): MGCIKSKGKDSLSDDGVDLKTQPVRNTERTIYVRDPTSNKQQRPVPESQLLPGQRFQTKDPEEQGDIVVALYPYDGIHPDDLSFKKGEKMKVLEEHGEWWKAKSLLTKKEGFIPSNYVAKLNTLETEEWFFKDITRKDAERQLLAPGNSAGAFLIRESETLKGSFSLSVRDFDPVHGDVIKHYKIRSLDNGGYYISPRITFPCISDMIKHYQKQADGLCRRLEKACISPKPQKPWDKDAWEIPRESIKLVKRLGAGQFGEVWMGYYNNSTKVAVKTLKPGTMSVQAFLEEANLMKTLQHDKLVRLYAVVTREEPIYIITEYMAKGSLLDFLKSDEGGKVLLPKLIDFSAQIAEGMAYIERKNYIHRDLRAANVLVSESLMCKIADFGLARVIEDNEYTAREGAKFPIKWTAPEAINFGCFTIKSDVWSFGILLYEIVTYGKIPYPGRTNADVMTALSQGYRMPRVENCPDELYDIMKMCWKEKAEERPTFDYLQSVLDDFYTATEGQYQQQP
Outline: as §1

266 human kinases [4] = molecular target: 266 human kinases (Homo sapiens, UniProt P14616); conditions: IRR(h); 100 μM
Chain of 266 human kinases (Homo sapiens, UniProt P14616) (P14616 27-1297): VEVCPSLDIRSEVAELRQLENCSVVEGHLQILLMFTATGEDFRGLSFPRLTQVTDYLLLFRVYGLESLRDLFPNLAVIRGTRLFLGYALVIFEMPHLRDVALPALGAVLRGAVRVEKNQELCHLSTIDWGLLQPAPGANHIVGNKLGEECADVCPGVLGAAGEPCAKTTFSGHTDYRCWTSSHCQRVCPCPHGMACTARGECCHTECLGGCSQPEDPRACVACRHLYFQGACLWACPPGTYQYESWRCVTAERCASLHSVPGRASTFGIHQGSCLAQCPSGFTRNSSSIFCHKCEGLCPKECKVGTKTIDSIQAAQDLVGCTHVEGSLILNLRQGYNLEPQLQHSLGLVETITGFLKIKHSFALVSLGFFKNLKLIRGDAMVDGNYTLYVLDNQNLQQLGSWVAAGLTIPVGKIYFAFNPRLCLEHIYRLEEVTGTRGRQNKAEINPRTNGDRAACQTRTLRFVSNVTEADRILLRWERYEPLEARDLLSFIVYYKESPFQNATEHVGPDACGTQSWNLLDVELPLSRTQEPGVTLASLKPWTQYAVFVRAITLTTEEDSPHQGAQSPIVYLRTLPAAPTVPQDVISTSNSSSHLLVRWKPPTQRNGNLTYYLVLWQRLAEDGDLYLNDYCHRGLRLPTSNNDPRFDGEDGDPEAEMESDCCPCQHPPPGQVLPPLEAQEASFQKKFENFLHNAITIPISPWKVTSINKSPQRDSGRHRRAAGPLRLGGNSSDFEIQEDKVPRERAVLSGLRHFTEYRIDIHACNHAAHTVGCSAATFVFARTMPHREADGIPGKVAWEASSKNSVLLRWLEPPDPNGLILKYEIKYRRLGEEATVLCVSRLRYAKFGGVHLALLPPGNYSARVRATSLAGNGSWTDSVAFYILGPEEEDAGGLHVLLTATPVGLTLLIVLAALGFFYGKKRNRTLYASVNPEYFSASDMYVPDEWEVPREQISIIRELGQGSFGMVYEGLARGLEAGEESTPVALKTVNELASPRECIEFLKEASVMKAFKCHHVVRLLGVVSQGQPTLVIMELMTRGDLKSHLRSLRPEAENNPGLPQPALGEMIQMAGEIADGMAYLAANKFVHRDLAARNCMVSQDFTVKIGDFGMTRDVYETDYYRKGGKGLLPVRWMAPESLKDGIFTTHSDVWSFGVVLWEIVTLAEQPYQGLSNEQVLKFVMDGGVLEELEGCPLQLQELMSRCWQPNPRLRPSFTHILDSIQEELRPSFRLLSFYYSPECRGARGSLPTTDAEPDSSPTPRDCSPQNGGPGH
Outline: as §1

266 human kinases [5] = molecular target: 266 human kinases (Homo sapiens, UniProt P16234); conditions: PDGFRα(h); 100 μM
Outline: as §1

266 human kinases [6] = molecular target: 266 human kinases (Homo sapiens, UniProt P50613); conditions: CDK7/cyclinH/MAT1(h); 100 μM
Chain of 266 human kinases (Homo sapiens, UniProt P50613) (P50613 whole entry): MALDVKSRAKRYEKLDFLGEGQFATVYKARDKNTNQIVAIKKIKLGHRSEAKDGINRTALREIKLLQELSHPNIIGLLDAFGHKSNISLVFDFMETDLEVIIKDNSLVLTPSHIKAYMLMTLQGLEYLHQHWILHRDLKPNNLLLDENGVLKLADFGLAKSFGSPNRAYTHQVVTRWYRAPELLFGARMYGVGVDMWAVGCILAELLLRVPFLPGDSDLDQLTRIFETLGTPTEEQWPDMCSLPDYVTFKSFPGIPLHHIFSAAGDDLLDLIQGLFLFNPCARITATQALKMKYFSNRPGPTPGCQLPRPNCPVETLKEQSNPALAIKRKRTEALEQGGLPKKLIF
Outline: as §1

266 human kinases [7] = molecular target: 266 human kinases (Homo sapiens, UniProt P51617); conditions: IRAK1(h); 100 μM
Outline: as §1

266 human kinases [8] = molecular target: 266 human kinases (Homo sapiens, UniProt P54646); conditions: AMPKα2(h); 100 μM
Chain of 266 human kinases (Homo sapiens, UniProt P54646) (P54646 whole entry): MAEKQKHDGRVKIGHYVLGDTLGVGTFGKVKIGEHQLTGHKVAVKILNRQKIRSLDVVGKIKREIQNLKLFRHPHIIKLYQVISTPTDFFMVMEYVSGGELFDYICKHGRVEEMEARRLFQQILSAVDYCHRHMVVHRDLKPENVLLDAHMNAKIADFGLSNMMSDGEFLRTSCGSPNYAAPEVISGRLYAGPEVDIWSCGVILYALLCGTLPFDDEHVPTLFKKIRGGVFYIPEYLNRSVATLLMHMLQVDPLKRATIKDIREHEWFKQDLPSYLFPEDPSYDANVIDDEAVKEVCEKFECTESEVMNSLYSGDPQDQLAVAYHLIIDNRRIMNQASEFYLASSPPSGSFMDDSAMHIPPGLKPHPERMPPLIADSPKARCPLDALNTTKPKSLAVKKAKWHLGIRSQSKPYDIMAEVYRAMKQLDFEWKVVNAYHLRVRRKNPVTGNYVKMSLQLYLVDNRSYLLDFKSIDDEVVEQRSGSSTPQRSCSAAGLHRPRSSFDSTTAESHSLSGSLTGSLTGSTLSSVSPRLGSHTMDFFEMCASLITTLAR
Outline: as §1

266 human kinases [9] = molecular target: T1, 266 human kinases (Homo sapiens, UniProt Q13976); conditions: PKG1α(h); 100 μM
T1 sequence (Q13976 1-671): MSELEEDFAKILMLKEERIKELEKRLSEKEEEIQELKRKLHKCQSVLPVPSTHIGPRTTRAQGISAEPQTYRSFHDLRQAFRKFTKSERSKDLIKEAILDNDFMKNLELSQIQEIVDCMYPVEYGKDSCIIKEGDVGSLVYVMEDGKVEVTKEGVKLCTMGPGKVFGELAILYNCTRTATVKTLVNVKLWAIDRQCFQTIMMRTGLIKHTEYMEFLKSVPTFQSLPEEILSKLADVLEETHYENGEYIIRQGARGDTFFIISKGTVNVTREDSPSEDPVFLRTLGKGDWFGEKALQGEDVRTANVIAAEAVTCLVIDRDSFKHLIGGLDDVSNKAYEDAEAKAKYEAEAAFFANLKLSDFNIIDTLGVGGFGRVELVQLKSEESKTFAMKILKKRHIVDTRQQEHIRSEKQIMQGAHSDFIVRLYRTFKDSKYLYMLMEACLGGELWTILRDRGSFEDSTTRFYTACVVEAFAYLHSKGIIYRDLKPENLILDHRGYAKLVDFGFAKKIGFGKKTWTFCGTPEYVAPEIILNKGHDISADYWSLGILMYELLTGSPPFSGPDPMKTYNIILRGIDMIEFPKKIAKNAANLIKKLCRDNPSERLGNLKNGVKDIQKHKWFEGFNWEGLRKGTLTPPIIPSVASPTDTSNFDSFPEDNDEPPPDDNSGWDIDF
Outline: as §1

266 human kinases [10] = molecular target: T2, 266 human kinases (Homo sapiens, UniProt Q15139); conditions: PKCμ(h); 100 μM
T2 sequence (Q15139 1-912): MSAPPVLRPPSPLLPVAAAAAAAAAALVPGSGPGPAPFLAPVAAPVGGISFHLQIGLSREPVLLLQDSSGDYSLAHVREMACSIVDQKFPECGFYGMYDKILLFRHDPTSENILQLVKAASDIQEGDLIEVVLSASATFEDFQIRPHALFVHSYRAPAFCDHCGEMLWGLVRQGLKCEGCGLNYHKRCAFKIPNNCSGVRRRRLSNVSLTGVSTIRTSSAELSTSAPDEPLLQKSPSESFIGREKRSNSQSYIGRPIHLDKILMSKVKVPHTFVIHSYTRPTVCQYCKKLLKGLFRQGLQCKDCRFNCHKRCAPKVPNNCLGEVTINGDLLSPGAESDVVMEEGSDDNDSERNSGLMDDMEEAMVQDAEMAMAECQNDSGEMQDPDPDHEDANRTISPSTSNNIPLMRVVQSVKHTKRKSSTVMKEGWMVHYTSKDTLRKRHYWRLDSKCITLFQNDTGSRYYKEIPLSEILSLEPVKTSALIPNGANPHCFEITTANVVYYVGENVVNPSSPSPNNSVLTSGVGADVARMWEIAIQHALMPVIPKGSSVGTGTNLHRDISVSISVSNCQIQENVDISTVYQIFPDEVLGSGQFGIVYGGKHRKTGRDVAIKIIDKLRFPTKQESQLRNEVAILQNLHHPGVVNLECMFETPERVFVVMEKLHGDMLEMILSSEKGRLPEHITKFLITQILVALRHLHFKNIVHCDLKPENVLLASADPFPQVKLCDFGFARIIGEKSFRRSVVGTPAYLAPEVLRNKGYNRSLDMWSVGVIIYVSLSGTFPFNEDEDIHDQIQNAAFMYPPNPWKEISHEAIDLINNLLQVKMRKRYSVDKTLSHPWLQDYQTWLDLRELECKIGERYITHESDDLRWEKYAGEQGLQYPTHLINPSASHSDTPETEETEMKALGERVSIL
Outline: as §1

266 human kinases [11] = molecular target: 266 human kinases (Homo sapiens, UniProt Q7KZI7); conditions: PAR-1Bα(h); 100 μM
Chain of 266 human kinases (Homo sapiens, UniProt Q7KZI7) (Q7KZI7 whole entry): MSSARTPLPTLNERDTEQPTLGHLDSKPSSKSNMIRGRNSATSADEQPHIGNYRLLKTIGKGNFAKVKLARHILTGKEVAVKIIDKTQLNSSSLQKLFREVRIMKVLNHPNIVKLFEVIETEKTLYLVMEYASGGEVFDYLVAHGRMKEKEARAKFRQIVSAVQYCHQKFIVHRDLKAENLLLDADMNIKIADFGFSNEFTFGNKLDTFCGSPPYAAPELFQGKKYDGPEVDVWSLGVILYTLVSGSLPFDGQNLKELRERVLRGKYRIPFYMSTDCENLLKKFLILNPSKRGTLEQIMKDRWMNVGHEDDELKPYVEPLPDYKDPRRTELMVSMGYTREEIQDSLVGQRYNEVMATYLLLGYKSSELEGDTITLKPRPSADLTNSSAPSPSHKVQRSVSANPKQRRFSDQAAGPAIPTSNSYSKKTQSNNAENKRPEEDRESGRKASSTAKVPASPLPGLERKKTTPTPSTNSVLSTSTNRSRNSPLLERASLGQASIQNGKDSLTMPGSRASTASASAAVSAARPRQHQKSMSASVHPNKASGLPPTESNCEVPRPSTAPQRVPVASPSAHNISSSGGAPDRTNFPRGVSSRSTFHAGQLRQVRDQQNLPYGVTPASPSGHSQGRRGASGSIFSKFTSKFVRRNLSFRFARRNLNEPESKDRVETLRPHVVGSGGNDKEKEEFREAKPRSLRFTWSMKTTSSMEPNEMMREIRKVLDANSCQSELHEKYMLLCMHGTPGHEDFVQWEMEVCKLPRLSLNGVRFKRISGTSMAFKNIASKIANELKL
Outline: as §1

266 human kinases [12] = molecular target: 266 human kinases (Homo sapiens, UniProt Q8WTQ7); conditions: GRK7(h); 100 μM
Chain of 266 human kinases (Homo sapiens, UniProt Q8WTQ7) (Q8WTQ7 whole entry): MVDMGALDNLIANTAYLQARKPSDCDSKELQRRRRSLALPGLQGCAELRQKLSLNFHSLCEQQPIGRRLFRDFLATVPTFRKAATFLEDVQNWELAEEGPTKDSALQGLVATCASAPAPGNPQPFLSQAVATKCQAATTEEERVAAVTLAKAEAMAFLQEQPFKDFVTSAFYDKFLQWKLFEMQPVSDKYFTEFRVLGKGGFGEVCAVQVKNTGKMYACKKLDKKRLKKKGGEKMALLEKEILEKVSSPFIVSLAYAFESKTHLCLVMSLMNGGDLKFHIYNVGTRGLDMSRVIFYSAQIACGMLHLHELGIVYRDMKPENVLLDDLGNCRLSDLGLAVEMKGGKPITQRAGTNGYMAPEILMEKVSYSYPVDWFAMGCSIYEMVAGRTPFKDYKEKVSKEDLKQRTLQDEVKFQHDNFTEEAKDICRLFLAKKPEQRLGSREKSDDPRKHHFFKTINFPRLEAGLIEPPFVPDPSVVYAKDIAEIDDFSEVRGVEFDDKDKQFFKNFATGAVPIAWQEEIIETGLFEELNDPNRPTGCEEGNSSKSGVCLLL
Outline: as §1

In the case of “HRRIKAWLKKIKALARQLGVAA (mammal) [MMI-0500]”, the “% activity” value (266 human kinases [1]) is reported as 6%, the “% activity” value (266 human kinases [2]) is reported as 14% and the “% activity” value (266 human kinases [3]) is reported as 31%. For the same sequence, the “% activity” value (266 human kinases [4]) was 10%, the “% activity” value (266 human kinases [5]) was 40% and the “% activity” value (266 human kinases [6]) was 15%. The “% activity” value (266 human kinases [7]) was 5%, the “% activity” value (266 human kinases [8]) was 9% and the “% activity” value (266 human kinases [9]) was 25%. For the same sequence, the “% activity” value (266 human kinases [10]) was 10%, the “% activity” value (266 human kinases [11]) was 97% and the “% activity” value (266 human kinases [12]) was 93%.
With “YARAAARQARAKALNRQLGVA (mammal) [MMI-0200]” the “% activity” value (266 human kinases [1]) was 101%, the “% activity” value (266 human kinases [2]) was 92% and the “% activity” value (266 human kinases [3]) was 98%. The “% activity” value (266 human kinases [4]) was 69%, the “% activity” value (266 human kinases [5]) was 108% and the “% activity” value (266 human kinases [6]) was 67%. For the same sequence, the “% activity” value (266 human kinases [7]) was 101%, the “% activity” value (266 human kinases [8]) was 88% and the “% activity” value (266 human kinases [9]) was 70%. The “% activity” value (266 human kinases [10]) was 73%, the “% activity” value (266 human kinases [11]) was 110% and the “% activity” value (266 human kinases [12]) was 124%.
